B1: convulxin (Cvx), purified from the venom of Crotalus durissus terrificus (ligand)
chain 1: GLHCPSDWYYYDQHCYRIFNEEMNWEDAEWFCTKQAKGAHLVSIKSAKEADFVAWMVTQNIEESFSHVSIGLRVQNKEKQCSTKWSDGSSVSYDNLLDLYITKCSLLKKETGFRKWFVASCIGKIPFVCKFPPQC
chain 2: GFCCPSHWSSYDRYCYKVFKQEMTWADAEKFCTQQHTGSHLVSFHSTEEVDFVVKMTHQSLKSTFFWIGANNIWNKCNWQWSDGTKPEYKEWHEEFECLISRTFDNQWLSAPCSDTYSFVCKFEA
B2: human TANGO 268 (glycoprotein VI, GPVI) (receptor)
chain: QSGPLPKPSLQALPSSLVPLEKPVTLRCQGPPGVDLYRLEKLSSSRYQDQAVLFIPAMKRSLAGRYRCSYQNGSLWSLPSDQLELVATGVFAKPSLSAQPGPAVSSGGDVTLQCQTRYGFDQFALYKEGDPAPYKNPERWYRASFPIITVTAAHSGTYRCYSFSSRDPYLWSAPSDPLELVVTGTSVTPSRLPTEPPSSVAEFSEATAELTVSFTNKVFTTETSRSITTSPKESDSPAGPARQYYTKGNLVRICLGAVILIILAGFLAEDWHSRRKRLRHRGRAVQRPLPPLPPLPQTRKSHGGQDGGRQDVHSRGLCS
notes: Full-length protein: in lysates of transfected CHO cells and of human platelets (blots), on transduced U937, K562 and HEL cells, and on human platelets; Signal peptide 1-20 is a SIGNALP prediction; also called hGPVI; rhGPVI

Experiments:
[1] = target: baboon GPVI on baboon platelets (baboon); experiment: flow cytometry, washed baboon platelets, FITC anti-mouse IgG; negative control
[2] = target: B2; experiment: flow cytometry, washed human platelets, FITC anti-mouse IgG; negative control
[3] = target: soluble human GPVI-Fc (extracellular domain of GPVI fused to human IgG1 Fc) (human) (UniProt Q9HCN6); experiment: SPR (BIAcore), GPVI-Fc coupled to the chip, bivalent model; negative control
[4] = target: collagen type I; experiment: cell-based or functional assay
[5] = target: baboon GPVI on baboon platelets (baboon); experiment: flow cytometry, washed baboon platelets; positive control
[6] = target: B2
[7] = target: B1; experiment: ligand blot with 125I-Cvx on lysates of transfected CHO cells and of platelets
[8] = target: T1, bovine serum albumin (BSA) (UniProt P02769 25-607); experiment: adhesion of 51Cr-labelled GPVI-transduced U937 cells to immobilized BSA
T1 construct: Control surface in the cell adhesion assay
T1 sequence (P02769 25-607 limits assumed): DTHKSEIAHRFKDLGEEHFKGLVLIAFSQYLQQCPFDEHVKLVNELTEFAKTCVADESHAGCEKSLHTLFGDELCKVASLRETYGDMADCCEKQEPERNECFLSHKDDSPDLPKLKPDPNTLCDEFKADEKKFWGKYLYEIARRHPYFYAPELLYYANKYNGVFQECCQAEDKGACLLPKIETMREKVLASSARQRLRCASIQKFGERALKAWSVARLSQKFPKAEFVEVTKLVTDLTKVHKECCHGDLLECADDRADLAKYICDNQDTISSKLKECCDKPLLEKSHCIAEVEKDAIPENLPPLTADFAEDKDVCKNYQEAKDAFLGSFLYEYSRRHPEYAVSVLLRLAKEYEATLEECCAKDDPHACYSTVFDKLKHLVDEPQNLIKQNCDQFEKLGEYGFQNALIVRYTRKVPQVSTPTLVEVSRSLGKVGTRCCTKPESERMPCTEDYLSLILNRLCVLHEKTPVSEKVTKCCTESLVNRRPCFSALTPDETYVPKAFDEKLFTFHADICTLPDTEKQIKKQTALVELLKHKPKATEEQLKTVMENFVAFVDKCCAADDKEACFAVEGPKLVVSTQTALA

[9] = target: B1; experiment: flow cytometry, FITC-Cvx
[10] = target: T1, bovine serum albumin (BSA); experiment: adhesion of 51Cr-labelled GPVI-transduced FDC-P1 cells to immobilized BSA
[11] = target: T2, mouse collagen (type III) in descending aorta sections (mouse, UniProt P08121 155-1219, limits assumed); experiment: immunofluorescence on mouse descending aorta sections, anti-human Fc detection
T2 construct: The target is tissue; also called mouse type III collagen; mouse aorta sections
T2 sequence (looked up): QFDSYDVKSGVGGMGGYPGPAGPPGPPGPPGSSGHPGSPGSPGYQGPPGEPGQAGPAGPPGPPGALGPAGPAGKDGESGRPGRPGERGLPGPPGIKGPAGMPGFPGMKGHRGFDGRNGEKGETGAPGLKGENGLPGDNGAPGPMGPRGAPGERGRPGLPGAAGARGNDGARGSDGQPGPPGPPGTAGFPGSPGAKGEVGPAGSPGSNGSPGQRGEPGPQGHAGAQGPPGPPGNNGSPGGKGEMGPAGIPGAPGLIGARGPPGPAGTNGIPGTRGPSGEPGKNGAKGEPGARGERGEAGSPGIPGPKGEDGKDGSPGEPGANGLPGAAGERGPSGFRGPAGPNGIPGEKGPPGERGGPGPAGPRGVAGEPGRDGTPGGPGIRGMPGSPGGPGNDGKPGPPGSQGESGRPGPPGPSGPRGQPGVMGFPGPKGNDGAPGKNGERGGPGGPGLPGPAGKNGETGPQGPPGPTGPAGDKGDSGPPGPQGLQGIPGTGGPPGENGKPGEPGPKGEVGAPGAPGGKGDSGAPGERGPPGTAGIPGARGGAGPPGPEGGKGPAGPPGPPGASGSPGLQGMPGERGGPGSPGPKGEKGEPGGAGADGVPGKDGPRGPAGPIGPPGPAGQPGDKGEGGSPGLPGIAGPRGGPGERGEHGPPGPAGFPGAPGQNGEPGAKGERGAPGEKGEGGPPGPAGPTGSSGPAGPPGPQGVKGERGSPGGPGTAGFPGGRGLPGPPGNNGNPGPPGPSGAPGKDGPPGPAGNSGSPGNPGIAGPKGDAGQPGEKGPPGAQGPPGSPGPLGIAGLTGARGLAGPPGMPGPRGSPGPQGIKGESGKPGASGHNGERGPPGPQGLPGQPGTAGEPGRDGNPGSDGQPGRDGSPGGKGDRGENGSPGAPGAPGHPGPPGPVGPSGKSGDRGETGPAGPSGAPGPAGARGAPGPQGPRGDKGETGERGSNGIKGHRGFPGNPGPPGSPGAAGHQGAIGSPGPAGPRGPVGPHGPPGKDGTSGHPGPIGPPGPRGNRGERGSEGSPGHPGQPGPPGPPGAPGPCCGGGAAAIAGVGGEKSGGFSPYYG

Work on “monoclonal antibody 7H14.1 (negative control)” yielded a Baboon fluorescence intensity [1] of 9, a Baboon platelets % positive [1] of 6.8% and a Human fluorescence intensity [2] of 7. The Human platelets % positive [2] was 1.4%.

“monoclonal antibody 7120.2 (negative control)” was tested, and the Baboon fluorescence intensity [1] was 10, the Baboon platelets % positive [1] was 9% and the Kd [3] was 0.21 µM. The Human fluorescence intensity [2] was 7 and the Human platelets % positive [2] was 1.6%.

“recombinant human soluble GPVI:Fc fusion protein (rhusGPVI:Fc) (from UniProt Q9HCN6 21-269)” showed a concentration of rhusGPVI:Fc needed for inhibition, against that needed for Cvx [4] of 10 fold.

B1 was tested, and the Baboon fluorescence intensity [5] was 72, the Baboon platelets % positive [5] was 95% and the IC50 [6] was 0.004 µM.

B2: binds [7]; no binding [8].

B3: mouse TANGO 268 (murine GPVI) (receptor)
chain: QSGPLPKPSLQAQPSSLVPLGQSVILRCQGPPDVDLYRLEKLKPEKYEDQDFLFIPTMERSNAGRYRCSYQNGSHWSLPSDQLELIATGVYAKPSLSAHPSSAVPQGRDVTLKCQSPYSFDEFVLYKEGDTGPYKRPEKWYRANFPIITVTAAHSGTYRCYSFSSSSPYLWSAPSDPLVLVVTGLSATPSQVPTEESFPVTESSRRPSILPTNKISTTEKPMNITASPEGLSPPIGFAHQHYAKGNLVRICLGATIIIILLGLLAEDWHSRKKCLQHRMRALQRPLPPLPLA
notes: Full-length protein on retrovirally transduced FDC-P1, 32D and Ba/F3 cells; Signal peptide 1-21 is a SIGNALP prediction; also called mGPVI; rmGPVI
B3: binds [9]; no binding [10].

B4: human neurotactin conjugated to human Fc (Fc fusion, UniProt P78423 25-341, looked up)
chain: QHHGVTKCNITCSKMTSKIPVALLIHYQQNQASCGKRAIILETRQHRLFCADPKEQWVKDAMQHLDRQAAALTRNGGTFEKQIGEVKPRTTPAAGGMDESVVLEPEATGESSSLEPTPSSQEAQRALGTSPELPTGVTGSSGTRLPPTPKAQDGGPVGTELFRVPPVSTAATWQSSAPHQPGPSLWAEAKTSEAPSTQDPSTQASTASSPAPEENAPSEGQRVWGQGQSPRPENSLEREEMGPVPAHTDAFQDWGPGSMAHVSVVPVSSEGTPSREPVASGSWTPKAEEPIHATMDPQRLGVLITPVPDAQAATRRQ
notes: Negative-control Fc fusion; not shown: human Fc
B4: no binding [11].
